Test results: paper PMC9482650, “Quantitative fragmentomics allow affinity mapping of interactomes” (Nature Communications, 2022)

How the values were obtained:
Experiment in all cases: holdup assay
Set-up in all cases: key: below the threshold = too weak to quantify, mostly under pKd 3.1 to 4
[1] = biological target: T1, CARD11, Q9BXL7
T1 sequence (Q9BXL7 662-765, limits assumed, looked up): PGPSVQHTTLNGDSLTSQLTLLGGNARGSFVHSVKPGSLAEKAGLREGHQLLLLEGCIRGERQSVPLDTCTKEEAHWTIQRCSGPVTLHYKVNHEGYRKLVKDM

[2] = biological target: CASK, O14936
[3] = biological target: SCRIB_3, Q14160
[4] = biological target: T2, GRIP1_7, Q9Y3R0
T2 sequence (Q9Y3R0 999-1096, limits assumed, looked up): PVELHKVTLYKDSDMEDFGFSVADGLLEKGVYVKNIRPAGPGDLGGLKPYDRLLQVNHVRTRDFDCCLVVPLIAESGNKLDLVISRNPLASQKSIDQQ

[5] = biological target: Inadl_10, Q8NI35
[6] = biological target: MAGI1_2, Q96QZ7
[7] = biological target: FRMPD3, Q5JV73
[8] = biological target: T3, TIAM2, Q8IVF5
T3 sequence (Q8IVF5 885-986, limits assumed, looked up): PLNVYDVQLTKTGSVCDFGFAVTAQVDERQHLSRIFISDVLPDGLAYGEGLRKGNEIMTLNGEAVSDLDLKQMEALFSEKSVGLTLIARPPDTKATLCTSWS

[9] = biological target: Inadl_6, Q8NI35
[10] = biological target: MAGI2_3, Q86UL8
[11] = biological target: PTPN3, P26045
[12] = biological target: MAGI2_5, Q86UL8
[13] = biological target: T4, GRIP1_3, Q9Y3R0
T4 sequence (Q9Y3R0 247-346, limits assumed, looked up): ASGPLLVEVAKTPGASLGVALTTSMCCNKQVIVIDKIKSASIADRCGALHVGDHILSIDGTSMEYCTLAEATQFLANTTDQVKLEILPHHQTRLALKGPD

[14] = biological target: T5, LNX2_3, Q8N448
T5 sequence (Q8N448 463-564, limits assumed, looked up): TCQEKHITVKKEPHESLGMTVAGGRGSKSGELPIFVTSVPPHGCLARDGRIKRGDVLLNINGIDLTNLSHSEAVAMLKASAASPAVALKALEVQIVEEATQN

[15] = biological target: MAST1, Q9Y2H9
[16] = biological target: GRID2IP_2, A4D2P6
[17] = biological target: T6, DVL3, Q92997
T6 sequence (Q92997 244-331, limits assumed, looked up): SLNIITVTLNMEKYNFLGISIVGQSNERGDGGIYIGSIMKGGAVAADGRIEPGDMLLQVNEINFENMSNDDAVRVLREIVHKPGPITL

[18] = biological target: T7, DFNB31_3, Q9P202
T7 sequence (Q9P202 811-907, limits assumed, looked up): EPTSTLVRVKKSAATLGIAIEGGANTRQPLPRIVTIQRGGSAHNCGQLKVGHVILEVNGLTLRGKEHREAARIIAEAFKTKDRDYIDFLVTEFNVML

[19] = biological target: T8, DFNB31_1, Q9P202
T8 sequence (Q9P202 135-233, limits assumed, looked up): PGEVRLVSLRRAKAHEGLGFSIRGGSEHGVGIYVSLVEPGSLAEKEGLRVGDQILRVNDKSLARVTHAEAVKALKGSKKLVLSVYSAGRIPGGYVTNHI

[20] = biological target: T9, RHPN1, Q8TCX5
T9 sequence (Q8TCX5 508-602, limits assumed, looked up): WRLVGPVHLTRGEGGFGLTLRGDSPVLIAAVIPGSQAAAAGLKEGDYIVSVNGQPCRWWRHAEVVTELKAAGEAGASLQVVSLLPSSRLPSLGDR

[21] = biological target: TJP2_1, Q9UDY2
[22] = biological target: DLG1_1, Q12959
[23] = biological target: DLG1_2, Q12959
[24] = biological target: NHERF2_2, Q15599
[25] = biological target: DLG4_3, P78352
[26] = biological target: T10, DLG3_3, Q92796
T10 sequence (Q92796 374-475, limits assumed, looked up): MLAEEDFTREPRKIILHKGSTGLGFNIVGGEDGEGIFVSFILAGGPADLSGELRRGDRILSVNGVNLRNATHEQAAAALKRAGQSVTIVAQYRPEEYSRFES

[27] = biological target: T11, PCLO, Q9Y6V0
T11 sequence (Q9Y6V0 4491-4600, limits assumed, looked up): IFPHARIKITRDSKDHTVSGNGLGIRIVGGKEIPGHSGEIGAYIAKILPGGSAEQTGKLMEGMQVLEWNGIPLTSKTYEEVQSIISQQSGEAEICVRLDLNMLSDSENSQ

[28] = plain residues with an end cap or a label only (N-terminal biotin on a linker: ahx)
[29] = plain residues with an end cap or a label only (N-terminal biotin on a linker: ttds)

TJP2_1, Q9UDY2, sequence (Q9UDY2 24-128): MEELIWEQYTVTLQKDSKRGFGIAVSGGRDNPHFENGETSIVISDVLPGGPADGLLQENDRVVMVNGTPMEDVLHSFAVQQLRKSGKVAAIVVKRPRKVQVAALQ
CASK, O14936, sequence (O14936 487-570): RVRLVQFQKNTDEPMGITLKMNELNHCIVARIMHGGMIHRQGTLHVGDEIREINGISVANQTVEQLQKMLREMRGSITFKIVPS
SCRIB_3, Q14160, sequence (Q14160 999-1103): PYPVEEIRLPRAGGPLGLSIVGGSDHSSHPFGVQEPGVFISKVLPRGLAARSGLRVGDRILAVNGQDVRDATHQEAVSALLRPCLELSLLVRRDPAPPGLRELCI
MAGI2_5, Q86UL8, sequence (Q86UL8 915-1017): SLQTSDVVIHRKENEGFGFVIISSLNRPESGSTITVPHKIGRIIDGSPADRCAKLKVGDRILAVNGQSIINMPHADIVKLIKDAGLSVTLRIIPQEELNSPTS
GRID2IP_2, A4D2P6, sequence (A4D2P6 272-370): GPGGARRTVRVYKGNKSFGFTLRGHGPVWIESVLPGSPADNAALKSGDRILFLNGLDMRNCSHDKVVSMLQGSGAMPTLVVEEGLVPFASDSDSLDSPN
PTPN3, P26045, sequence (P26045 505-587): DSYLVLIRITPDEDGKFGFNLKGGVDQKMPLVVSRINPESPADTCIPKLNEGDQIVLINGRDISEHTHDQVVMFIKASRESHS
FRMPD3, Q5JV73, sequence (Q5JV73 12-100): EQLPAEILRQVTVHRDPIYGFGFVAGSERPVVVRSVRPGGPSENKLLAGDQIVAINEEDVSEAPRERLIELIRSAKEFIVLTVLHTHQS
Inadl_6, Q8NI35, sequence (Q8NI35 1058-1167): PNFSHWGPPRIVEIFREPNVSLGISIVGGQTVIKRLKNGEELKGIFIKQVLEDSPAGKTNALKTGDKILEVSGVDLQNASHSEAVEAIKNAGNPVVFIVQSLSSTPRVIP
MAGI2_3, Q86UL8, sequence (Q86UL8 600-682): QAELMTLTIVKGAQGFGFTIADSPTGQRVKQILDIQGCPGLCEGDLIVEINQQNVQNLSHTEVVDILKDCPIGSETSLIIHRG
MAST1, Q9Y2H9, sequence (Q9Y2H9 962-1065): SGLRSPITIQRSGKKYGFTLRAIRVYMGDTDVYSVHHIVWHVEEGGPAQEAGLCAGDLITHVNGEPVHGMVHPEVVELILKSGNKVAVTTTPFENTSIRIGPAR
MAGI1_2, Q96QZ7, sequence (Q96QZ7 456-580): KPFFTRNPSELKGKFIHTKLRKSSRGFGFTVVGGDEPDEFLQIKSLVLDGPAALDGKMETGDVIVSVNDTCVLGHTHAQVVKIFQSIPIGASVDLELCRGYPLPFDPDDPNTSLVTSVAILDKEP
DLG4_3, P78352, sequence (P78352 306-403): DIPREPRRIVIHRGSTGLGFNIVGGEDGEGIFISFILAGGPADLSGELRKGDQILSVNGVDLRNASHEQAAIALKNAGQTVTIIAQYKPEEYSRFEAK
NHERF2_2, Q15599, sequence (Q15599 142-238): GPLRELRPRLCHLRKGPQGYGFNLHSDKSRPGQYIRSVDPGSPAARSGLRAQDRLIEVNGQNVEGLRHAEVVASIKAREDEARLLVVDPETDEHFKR
Inadl_10, Q8NI35, sequence (Q8NI35 1673-1763): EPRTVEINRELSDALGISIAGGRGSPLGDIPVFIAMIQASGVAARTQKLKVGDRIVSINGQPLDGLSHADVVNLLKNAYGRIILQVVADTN

**Q.** GYDWGPATDL [TJP3, O95049] was tested. Which pKd [1, 28] did it give?
**A.** below the threshold

**Q.** What about the pKd [2, 28] of the same binder?
**A.** below the threshold

**Q.** What about the pKd [3, 28] of the same binder?
**A.** 4.93

**Q.** And the pKd [4, 28]?
**A.** below the threshold

**Q.** What about the pKd [5, 28] of the same binder?
**A.** 3.62

**Q.** And the pKd [6, 28]?
**A.** below the threshold

**Q.** And the pKd [7, 28]?
**A.** below the threshold

**Q.** And the pKd [8, 28]?
**A.** below the threshold

**Q.** What about the pKd [9, 28] of the same binder?
**A.** 4.8

**Q.** And the pKd [10, 28]?
**A.** below the threshold

**Q.** What about the pKd [11, 28] of the same binder?
**A.** 4.27

**Q.** And the pKd [12, 28]?
**A.** below the threshold

**Q.** What about the pKd [13, 28] of the same binder?
**A.** below the threshold

**Q.** What about the pKd [14, 28] of the same binder?
**A.** below the threshold

**Q.** What about the pKd [15, 28] of the same binder?
**A.** 4.78

**Q.** What about the pKd [16, 28] of the same binder?
**A.** 4.47

**Q.** What about the pKd [17, 28] of the same binder?
**A.** below the threshold

**Q.** What about the pKd [18, 28] of the same binder?
**A.** below the threshold

**Q.** What about the pKd [19, 28] of the same binder?
**A.** 4.11

**Q.** What about the pKd [20, 28] of the same binder?
**A.** 5.36

**Q.** What about the pKd [21, 28] of the same binder?
**A.** below the threshold

**Q.** What about the pKd [22, 28] of the same binder?
**A.** below the threshold

**Q.** What about the pKd [23, 28] of the same binder?
**A.** 3.61

**Q.** What about the pKd [24, 28] of the same binder?
**A.** 4.64

**Q.** What about the pKd [25, 28] of the same binder?
**A.** below the threshold

**Q.** And the pKd [26, 28]?
**A.** below the threshold

**Q.** What about the pKd [27, 28] of the same binder?
**A.** below the threshold

**Q.** For RHTTSTETAV [HPV30-E6, P36809], which pKd [1, 29] is on record?
**A.** below the threshold

**Q.** And the pKd [2, 29]?
**A.** below the threshold

**Q.** What about the pKd [3, 29] of the same binder?
**A.** 5.02

**Q.** What about the pKd [4, 29] of the same binder?
**A.** below the threshold

**Q.** And the pKd [5, 29]?
**A.** below the threshold

**Q.** What about the pKd [6, 29] of the same binder?
**A.** 4.39

**Q.** What about the pKd [7, 29] of the same binder?
**A.** 3.76

**Q.** What about the pKd [8, 29] of the same binder?
**A.** below the threshold

**Q.** And the pKd [9, 29]?
**A.** below the threshold

**Q.** What about the pKd [10, 29] of the same binder?
**A.** 4.57

**Q.** And the pKd [11, 29]?
**A.** 5.13

**Q.** What about the pKd [12, 29] of the same binder?
**A.** 4.31

**Q.** And the pKd [13, 29]?
**A.** below the threshold

**Q.** What about the pKd [14, 29] of the same binder?
**A.** below the threshold

**Q.** And the pKd [15, 29]?
**A.** 4.66

**Q.** And the pKd [16, 29]?
**A.** below the threshold

**Q.** And the pKd [17, 29]?
**A.** below the threshold

**Q.** What about the pKd [18, 29] of the same binder?
**A.** below the threshold

**Q.** What about the pKd [19, 29] of the same binder?
**A.** 4.27

**Q.** What about the pKd [20, 29] of the same binder?
**A.** 4.08

**Q.** And the pKd [21, 29]?
**A.** below the threshold

**Q.** And the pKd [22, 29]?
**A.** 4.93

**Q.** What about the pKd [23, 29] of the same binder?
**A.** 5.63

**Q.** And the pKd [24, 29]?
**A.** below the threshold

**Q.** And the pKd [25, 29]?
**A.** 4.35

**Q.** And the pKd [26, 29]?
**A.** 4.66

**Q.** And the pKd [27, 29]?
**A.** below the threshold

**Q.** For RLQRRRETQV [HPV18-E6, P06463], which pKd [1, 29] is on record?
**A.** below the threshold

**Q.** What about the pKd [2, 29] of the same binder?
**A.** below the threshold

**Q.** What about the pKd [3, 29] of the same binder?
**A.** 4.84

**Q.** And the pKd [4, 29]?
**A.** below the threshold

**Q.** And the pKd [5, 29]?
**A.** below the threshold

**Q.** What about the pKd [6, 29] of the same binder?
**A.** 5.97

**Q.** And the pKd [7, 29]?
**A.** below the threshold

**Q.** What about the pKd [8, 29] of the same binder?
**A.** below the threshold

**Q.** And the pKd [9, 29]?
**A.** below the threshold

**Q.** What about the pKd [10, 29] of the same binder?
**A.** 4.15

**Q.** What about the pKd [11, 29] of the same binder?
**A.** 4.49

**Q.** And the pKd [12, 29]?
**A.** 3.78

**Q.** And the pKd [13, 29]?
**A.** below the threshold

**Q.** What about the pKd [14, 29] of the same binder?
**A.** below the threshold

**Q.** What about the pKd [15, 29] of the same binder?
**A.** 5.33

**Q.** What about the pKd [16, 29] of the same binder?
**A.** below the threshold

**Q.** And the pKd [17, 29]?
**A.** below the threshold

**Q.** What about the pKd [18, 29] of the same binder?
**A.** below the threshold

**Q.** What about the pKd [19, 29] of the same binder?
**A.** below the threshold

**Q.** And the pKd [20, 29]?
**A.** 3.63

**Q.** And the pKd [21, 29]?
**A.** 3.89

**Q.** What about the pKd [22, 29] of the same binder?
**A.** 5.26

**Q.** What about the pKd [23, 29] of the same binder?
**A.** 5.78

**Q.** And the pKd [24, 29]?
**A.** below the threshold

**Q.** What about the pKd [25, 29] of the same binder?
**A.** 5.74

**Q.** What about the pKd [26, 29] of the same binder?
**A.** 5.44

**Q.** And the pKd [27, 29]?
**A.** below the threshold
